{"source": "paper PMC5456102", "about": "“NGR-peptide−drug conjugates with dual targeting properties” (PLoS ONE, 2017)", "key": {"[1]": {"details": "non-conjugated cyclic peptides; cited from earlier work", "text": "Cyclic NGR peptides are promising candidates as targeting moieties for drug delivery to CD13-positive tumor cells and the tumor neovasculature. Up to now the most widely used NGR peptide conjugates have been based on the disulfide bridge containing cyclic peptide [CNGRC]. The cargo (including tumor necrosis factor (TNF), platina complexes, etc.) is usually attached to the C-terminus of the peptide. Recently, an amide bond containing cyclic NGR peptide ([KNGRE]-NH2) with higher resilience against deamidation has been described, in which cargos such as fluorescent labels or chelated ..."}, "Lysosomal degradation": {"test": "Lysosomal degradation", "assay_type": "in vitro ADME", "details": "rat liver lysosomal homogenate, 37°C, LC-MS; for starting conjugate found after 6 h incubation in lysosomal homogenate: 0.2 M NaOAc pH 5.0, 1:1 w/w; for rate of decomposition in lysosomal homogenate / time within which the conjugate decomposed in lysosomal homogenate: 0.2 M NaOAc pH 5.0, conjugate/homogenate 1:1 w/w; for time within which the conjugate decomposed in lysosomal homogenate: conjugate 0.2 μg/μL, samples at 5 min, 72 h; for starting conjugate found after 6 h incubation in lysosomal homogenate / time within which the conjugate decomposed in lysosomal homogenate: 6 h", "procedure": "Rat liver lysosomal homogenate was prepared as described previously. Protein concentration was determined with bicinchoninic acid (Pierce BCA protein assay) according to the manufacturer’s protocol (ThermoFisher Scientific, Rockford, IL, USA) and it was 17.4 μg/μL. Degradation of the bioconjugates in the rat liver lysosomal homogenate was determined as follows: i) bioconjugates were dissolved in d.i. water at a concentration of 4 μg/μL, ii) the solutes were further diluted to a concentration of 0.2 μg/μL with 0.2 M NaOAc (pH 5.0), iii) the rat liver lysosomal homogenate was diluted with 0.2 M NaOAc (pH 5.0) to a concentration of 3.48 μg/μL, iv) the homogenate was added to the conjugates (conjugate/lysosomal homogenate ratio = 1:1, w/w), v) the reaction mixtures were incubated at 37°C and aliquots of 13 μL were taken at 5 min, 6 h and 72 h, vi) the reactions were quenched by adding 2 μL of formic acid, followed by LC-MS analysis (Bruker Esquire 3000+; Jasco PU-2085plus system; Supelco Ascentis C18 coloum, 3 μm, 2,1 x 150 mm, 100 Å).\nConjugates for drug targeting with receptor-binding peptides may enter the cells by receptor mediated endocytosis. Endocytic vesicles fuse with lysosomes, which is followed by the degradation of the conjugates by lysosomal enzymes. Cathepsin B is one of the main lysosomal enzymes overexpressed in cancer cells. Therefore, Cathepsin B labile spacers (e.g. GFLG tetrapeptide) are often incorporated between the drug and targeting moiety. We used a rat lysosomal homogenate to study the degradation of conjugates and to follow the release of drug containing metabolites (Fig 9, S9–S14 Figs). […] In addition, a minor peak corresponding to Dau = Aoa-Gly-Phe-OH could also be detected. The peak corresponding to Dau = Aoa-GF-OH was the highest in case of conjugate 1. In contrast to these conjugates, decomposition of the disulfide bond containing conjugate (2) was much slower. […] This slow degradation might be one of the reasons why conjugate 2 is less toxic than conjugate 5, which has the same ring size. […] After 72 h only Dau = Aoa-Gly-OH could be detected in cases of all conjugates."}, "HT-1080 cells": {"system": "HT-1080 cells", "test": "Cellular uptake by flow cytometry", "assay_type": "cell-based, human", "details": "10 μM conjugate in FBS supplemented medium, 6 h, 37°C, flow cytometry of Dau fluorescence, live cells (Zombie Violet)", "procedure": "(§1) HT-1080 and HT-29 cells were seeded at a 250,000 cells/well density, and were incubated overnight in their culturing media. The following day daunomycin conjugates were dissolved in culturing media (FBS supplemented), and added to the cells immediately at 10 μM final concentration. After 6 h incubation at 37°C the supernatant was removed, cells were washed with PBS and trypsinized with 0.1% trypsin (Gibco® by Life Technologies) for 10 minutes. Trypsinization was terminated with FBS containing medium, then cells were washed and suspended in serum free medium. For live/dead distinction we used Zombie Violet reagent (BioLegend, San Diego, CA). Samples were measured and analyzed with an Attune® Acoustic Focusing Cytometer (ThermoFisher Scientific).\n(§2) As daunomycin-conjugates are fluorescent, we were able to follow their cellular uptake with a flow cytometer (Fig 10, S15 Fig). […] The higher uptake of 2 compared to 5 might partly compensate its slower degradation resulting in almost similar bioactivity. […] We speculate that the high cytostatic effect of 3 is explained by its fast decomposition resulting in the active Dau = Aoa-Gly-OH metabolite. […] However, after deamidation the formed isoDGR might be recognized by RGD integrin receptor, that results in moderate cytotoxicity in both cell lines during a longer treatment. […] Taking also the slow metabolite release into account, this observation explains the lack of significant cytostatic effect.\n(§3) Fig 10 Direct uptake of daunomycin-conjugates. Normalized uptake values indicate the fold increase of the measured fluorescent units compared to the autofluorescence of empty cells."}, "HT-29 cells": {"system": "HT-29 cells", "test": "Cellular uptake by flow cytometry", "assay_type": "cell-based, human", "details": "10 μM conjugate in FBS supplemented medium, 6 h, 37°C, flow cytometry of Dau fluorescence, live cells (Zombie Violet)", "procedure": "as §1, §2, §3"}}, "note": "Positions of bridges follow the written chain, without caps; N, C: chain ends. Residues, ends and D or L forms follow the SMILES beside them. Groups on a side chain read outwards from the residue. Chains are numbered I, II in the order given. *: point of attachment. Daunorubicin(13-NOCH2CO) = COc1cccc2c1C(=O)c1c(O)c3c(c(O)c1C2=O)C[C@@](O)(C(C)=NOCC(=O)*)C[C@@H]3O[C@H]1C[C@H](N)[C@H](O)[C@H](C)O1"}
{"compound": "Ac-CNGRC-NH2 (disulfide 1-5) [Ac-[CNGRC]-NH2, disulfide bridge containing cyclic NGR peptide]", "values": [{"measurement": "chemostability class of the free cyclic NGR peptide (deamidation)", "setting": "[1]", "value": "moderately"}]}
{"compound": "c[CH2-CO-NGRC]-NH2", "values": [{"measurement": "chemostability class of the free cyclic NGR peptide (deamidation)", "setting": "[1]", "value": "highly labile"}]}
{"compound": "COc1cccc2c1C(=O)c1c(O)c3c(c(O)c1C2=O)C[C@@](O)(C(C)=NOCC(=O)NCC(=O)N[C@@H](Cc1ccccc1)C(=O)N[C@@H](CC(C)C)C(=O)NCC(=O)N[C@@H](CCCCNC(=O)CNC(=O)CNC(=O)[C@@H]1CSSC[C@H](NC(C)=O)C(=O)N[C@@H](CC(N)=O)C(=O)NCC(=O)N[C@@H](CCCNC(=N)N)C(=O)N1)C(N)=O)C[C@@H]3O[C@H]1C[C@H](N)[C@H](O)[C@H](C)O1", "note": "[compound 2, Dau = GFLGK(Ac-[CNGRC]GG)-NH2] (I: Ac-CNGRCGG / II: {Daunorubicin(13-NOCH2CO)}-GFLGK-NH2; disulfide I:1-I:5; amide I:C-II:5)", "values": [{"measurement": "starting conjugate found after 6 h incubation in lysosomal homogenate", "setting": "Lysosomal degradation", "value": "the presence of the starting compound could be detected"}, {"measurement": "rate of decomposition in lysosomal homogenate", "setting": "Lysosomal degradation", "value": "much slower"}, {"measurement": "cellular uptake in HT-1080 cells", "setting": "HT-1080 cells", "value": "higher accumulation"}, {"measurement": "cellular uptake in HT-29 cells", "setting": "HT-29 cells", "value": "higher accumulation"}]}
{"compound": "c[KNGRE]-NH2 (lariat or depsi) [head-to-side chain amide bond cyclized NGR peptide]", "values": [{"measurement": "chemostability class of the free cyclic NGR peptide (deamidation)", "setting": "[1]", "value": "stable"}]}
{"compound": "COc1cccc2c1C(=O)c1c(O)c3c(c(O)c1C2=O)C[C@@](O)(C(C)=NOCC(=O)NCC(=O)N[C@@H](Cc1ccccc1)C(=O)N[C@@H](CC(C)C)C(=O)NCC(=O)NCCCC[C@@H]1NC(=O)CSC[C@@H](C(N)=O)NC(=O)[C@H](CCCNC(=N)N)NC(=O)CNC(=O)[C@H](CC(N)=O)NC1=O)C[C@@H]3O[C@H]1C[C@H](N)[C@H](O)[C@H](C)O1", "note": "[compound 4, [CH2CO-K(Dau = Aoa-GFLG)NGRC]-NH2] ({CH2CO}-K([Gly-Leu-Phe-Gly-Daunorubicin(13-NOCH2CO)])NGRC-NH2; thioether N-5)", "values": [{"measurement": "starting conjugate found after 6 h incubation in lysosomal homogenate", "setting": "Lysosomal degradation", "value": "the main components were still the intact conjugates"}, {"measurement": "rate of decomposition in lysosomal homogenate", "setting": "Lysosomal degradation", "value": "decomposed very slowly"}, {"measurement": "cellular uptake in HT-1080 cells", "setting": "HT-1080 cells", "value": "low cellular uptake"}, {"measurement": "cellular uptake in HT-29 cells", "setting": "HT-29 cells", "value": "low cellular uptake"}]}
{"compound": "c[CH2-CO-KNGRC]-NH2 (sidechain bridge or staple) [thioether bond containing cyclic NGR peptide]", "values": [{"measurement": "chemostability class of the free cyclic NGR peptide (deamidation)", "setting": "[1]", "value": "highly labile"}]}
{"compound": "COc1cccc2c1C(=O)c1c(O)c3c(c(O)c1C2=O)C[C@@](O)(C(C)=NOCC(=O)NCC(=O)N[C@@H](Cc1ccccc1)C(=O)N[C@@H](CC(C)C)C(=O)NCC(=O)N[C@@H](CCCCNC(=O)CNC(=O)CNC(=O)[C@@H]1CSCC(=O)N[C@@H](CC(N)=O)C(=O)NCC(=O)N[C@@H](CCCNC(=N)N)C(=O)N1)C(N)=O)C[C@@H]3O[C@H]1C[C@H](N)[C@H](O)[C@H](C)O1", "note": "[compound 1, Dau = GFLGK([CH2CO-NGRC]GG)-NH2] (I: {CH2CO}-NGRCGG / II: {Daunorubicin(13-NOCH2CO)}-GFLGK-NH2; amide I:C-II:5; thioether I:N-I:4)", "values": [{"measurement": "time within which the conjugate decomposed in lysosomal homogenate", "setting": "Lysosomal degradation", "value": "≤ 6", "unit": "h"}, {"measurement": "cellular uptake in HT-1080 cells", "setting": "HT-1080 cells", "value": "did not show significant cellular uptake"}, {"measurement": "cellular uptake in HT-29 cells", "setting": "HT-29 cells", "value": "did not show significant cellular uptake"}]}
{"compound": "COc1cccc2c1C(=O)c1c(O)c3c(c(O)c1C2=O)C[C@@](O)(C(C)=NOCC(=O)NCC(=O)N[C@@H](Cc1ccccc1)C(=O)N[C@@H](CC(C)C)C(=O)NCC(=O)NCCCC[C@@H]1NC(=O)CC[C@@H](C(N)=O)NC(=O)[C@H](CCCNC(=N)N)NC(=O)CNC(=O)[C@H](CC(N)=O)NC1=O)C[C@@H]3O[C@H]1C[C@H](N)[C@H](O)[C@H](C)O1", "note": "[compound 6, [K(Dau = Aoa-GFLG)NGRE]-NH2] (K([Gly-Leu-Phe-Gly-Daunorubicin(13-NOCH2CO)])NGRE-NH2; lactam N-5)", "values": [{"measurement": "starting conjugate found after 6 h incubation in lysosomal homogenate", "setting": "Lysosomal degradation", "value": "the main components were still the intact conjugates"}, {"measurement": "rate of decomposition in lysosomal homogenate", "setting": "Lysosomal degradation", "value": "decomposed very slowly"}, {"measurement": "cellular uptake in HT-1080 cells", "setting": "HT-1080 cells", "value": "low cellular uptake"}, {"measurement": "cellular uptake in HT-29 cells", "setting": "HT-29 cells", "value": "low cellular uptake"}]}
{"compound": "COc1cccc2c1C(=O)c1c(O)c3c(c(O)c1C2=O)C[C@@](O)(C(C)=NOCC(=O)NCC(=O)N[C@@H](Cc1ccccc1)C(=O)N[C@@H](CC(C)C)C(=O)NCC(=O)N[C@@H](CCCCNC(=O)CNC(=O)CNC(=O)[C@@H]1CSCC(=O)N[C@@H](CCCCN)C(=O)N[C@@H](CC(N)=O)C(=O)NCC(=O)N[C@@H](CCCNC(=N)N)C(=O)N1)C(N)=O)C[C@@H]3O[C@H]1C[C@H](N)[C@H](O)[C@H](C)O1", "note": "[compound 3, Dau = GFLGK([CH2CO-KNGRC]GG)-NH2] (I: {CH2CO}-KNGRCGG / II: {Daunorubicin(13-NOCH2CO)}-GFLGK-NH2; amide I:C-II:5; thioether I:N-I:5)", "values": [{"measurement": "time within which the conjugate decomposed in lysosomal homogenate", "setting": "Lysosomal degradation", "value": "≤ 6", "unit": "h"}, {"measurement": "cellular uptake in HT-1080 cells", "setting": "HT-1080 cells", "value": "moderate uptake"}, {"measurement": "cellular uptake in HT-29 cells", "setting": "HT-29 cells", "value": "moderate uptake"}]}
